According to the supplement of paper PMC10567573:

B1: TEKT4 (parent)
chain: YARYHQAFADRDQSERQRHESQQL

Variants of: B1
Assay: protein stability index of a GFP-peptide fusion (GPS, HEK-293T) (PSI 1-6); higher = more stable
Settings: c terminus: a fixed tail appended
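Further: lentivirally expressed fusions sorted by FACS into six bins by GFP to DsRed ratio, PSI derived from sequencing read proportions per bin multiplied by bin number.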

Variant | protein stability index
RARYHQAFADRDQSERQRHESQQL [Y1R] | 4.08
SARYHQAFADRDQSERQRHESQQL [Y1S] | 4.87
TARYHQAFADRDQSERQRHESQQL [Y1T] | 4.62
VARYHQAFADRDQSERQRHESQQL [Y1V] | 4.91
WARYHQAFADRDQSERQRHESQQL [Y1W] | 3.69
YCRYHQAFADRDQSERQRHESQQL [A2C] | 1.48
YDRYHQAFADRDQSERQRHESQQL [A2D] | 4.3
YERYHQAFADRDQSERQRHESQQL [A2E] | 4.29
YFRYHQAFADRDQSERQRHESQQL [A2F] | 2.87
YHRYHQAFADRDQSERQRHESQQL [A2H] | 4.12
YIRYHQAFADRDQSERQRHESQQL [A2I] | 2.5
YKRYHQAFADRDQSERQRHESQQL [A2K] | 3.82
YLRYHQAFADRDQSERQRHESQQL [A2L] | 2.09
YMRYHQAFADRDQSERQRHESQQL [A2M] | 2.27
YNRYHQAFADRDQSERQRHESQQL [A2N] | 2.85
YPRYHQAFADRDQSERQRHESQQL [A2P] | 2.7
YQRYHQAFADRDQSERQRHESQQL [A2Q] | 1.84
YRRYHQAFADRDQSERQRHESQQL [A2R] | 4.27
YSRYHQAFADRDQSERQRHESQQL [A2S] | 1.92
YTRYHQAFADRDQSERQRHESQQL [A2T] | 1.67
YVRYHQAFADRDQSERQRHESQQL [A2V] | 1.87
YWRYHQAFADRDQSERQRHESQQL [A2W] | 2.68
YYRYHQAFADRDQSERQRHESQQL [A2Y] | 3.58
YAAYHQAFADRDQSERQRHESQQL [R3A] | 2.85

Variant | protein stability index
YACYHQAFADRDQSERQRHESQQL [R3C] | 2.84
YADYHQAFADRDQSERQRHESQQL [R3D] | 3
YAEYHQAFADRDQSERQRHESQQL [R3E] | 2.06
YAFYHQAFADRDQSERQRHESQQL [R3F] | 2.38
YAGYHQAFADRDQSERQRHESQQL [R3G] | 1.98
YAHYHQAFADRDQSERQRHESQQL [R3H] | 2.64
YAIYHQAFADRDQSERQRHESQQL [R3I] | 3.4
YAKYHQAFADRDQSERQRHESQQL [R3K] | 2.3
YALYHQAFADRDQSERQRHESQQL [R3L] | 2.97
YAMYHQAFADRDQSERQRHESQQL [R3M] | 2.6
YANYHQAFADRDQSERQRHESQQL [R3N] | 2.79
YAPYHQAFADRDQSERQRHESQQL [R3P] | 1.6
YAQYHQAFADRDQSERQRHESQQL [R3Q] | 2.57
YASYHQAFADRDQSERQRHESQQL [R3S] | 2.36
YATYHQAFADRDQSERQRHESQQL [R3T] | 2.79
YAVYHQAFADRDQSERQRHESQQL [R3V] | 3.11
YAWYHQAFADRDQSERQRHESQQL [R3W] | 2.2
YAYYHQAFADRDQSERQRHESQQL [R3Y] | 2.88
YARAHQAFADRDQSERQRHESQQL [Y4A] | 3.28
YARCHQAFADRDQSERQRHESQQL [Y4C] | 2.39
YARDHQAFADRDQSERQRHESQQL [Y4D] | 3.46
YAREHQAFADRDQSERQRHESQQL [Y4E] | 4.1
YARFHQAFADRDQSERQRHESQQL [Y4F] | 2.12
YARGHQAFADRDQSERQRHESQQL [Y4G] | 3.08

Variant | protein stability index
YARHHQAFADRDQSERQRHESQQL [Y4H] | 2.36
YARIHQAFADRDQSERQRHESQQL [Y4I] | 3.32
YARKHQAFADRDQSERQRHESQQL [Y4K] | 3.78
YARLHQAFADRDQSERQRHESQQL [Y4L] | 2.92
YARMHQAFADRDQSERQRHESQQL [Y4M] | 3.21
YARNHQAFADRDQSERQRHESQQL [Y4N] | 2.99
YARPHQAFADRDQSERQRHESQQL [Y4P] | 4
YARQHQAFADRDQSERQRHESQQL [Y4Q] | 3.85
YARRHQAFADRDQSERQRHESQQL [Y4R] | 3.81
YARSHQAFADRDQSERQRHESQQL [Y4S] | 3.44
YARTHQAFADRDQSERQRHESQQL [Y4T] | 2.8
YARVHQAFADRDQSERQRHESQQL [Y4V] | 3.51
YARWHQAFADRDQSERQRHESQQL [Y4W] | 1.6
YARYAQAFADRDQSERQRHESQQL [H5A] | 1.91
YARYCQAFADRDQSERQRHESQQL [H5C] | 2.39
YARYDQAFADRDQSERQRHESQQL [H5D] | 4.57
YARYEQAFADRDQSERQRHESQQL [H5E] | 4.54
YARYFQAFADRDQSERQRHESQQL [H5F] | 2.5
YARYGQAFADRDQSERQRHESQQL [H5G] | 1.44
YARYIQAFADRDQSERQRHESQQL [H5I] | 3.29
YARYKQAFADRDQSERQRHESQQL [H5K] | 2.88
YARYLQAFADRDQSERQRHESQQL [H5L] | 3.47
YARYMQAFADRDQSERQRHESQQL [H5M] | 3.43
YARYNQAFADRDQSERQRHESQQL [H5N] | 2.3

Variant | protein stability index
YARYPQAFADRDQSERQRHESQQL [H5P] | 2.98
YARYQQAFADRDQSERQRHESQQL [H5Q] | 2.98
YARYRQAFADRDQSERQRHESQQL [H5R] | 3
YARYSQAFADRDQSERQRHESQQL [H5S] | 2.16
YARYTQAFADRDQSERQRHESQQL [H5T] | 3.6
YARYVQAFADRDQSERQRHESQQL [H5V] | 2.87
YARYWQAFADRDQSERQRHESQQL [H5W] | 3.19
YARYYQAFADRDQSERQRHESQQL [H5Y] | 2.6
YARYHAAFADRDQSERQRHESQQL [Q6A] | 1.62
YARYHCAFADRDQSERQRHESQQL [Q6C] | 2.02
YARYHDAFADRDQSERQRHESQQL [Q6D] | 2.73
YARYHEAFADRDQSERQRHESQQL [Q6E] | 2.62
YARYHFAFADRDQSERQRHESQQL [Q6F] | 3.06
YARYHGAFADRDQSERQRHESQQL [Q6G] | 2.64
YARYHHAFADRDQSERQRHESQQL [Q6H] | 2.25
YARYHIAFADRDQSERQRHESQQL [Q6I] | 2.24
YARYHKAFADRDQSERQRHESQQL [Q6K] | 2.31
YARYHLAFADRDQSERQRHESQQL [Q6L] | 2.02
YARYHMAFADRDQSERQRHESQQL [Q6M] | 2.32
YARYHNAFADRDQSERQRHESQQL [Q6N] | 2.28
YARYHPAFADRDQSERQRHESQQL [Q6P] | 2.69
YARYHRAFADRDQSERQRHESQQL [Q6R] | 2.26
